Target: E2 wild-type (E2wt) scaffold protein without an HIV-1 N-terminal fusion (Geobacillus stearothermophilus)
Assay: SEC; Superdex200 gel filtration of E2wt in Solubility Buffer 2.2 (1x PBS, 50 mM L-Glutamine, 50 mM NaCl, 250 mM L-Arginine), 1 ml/min

With “E2 wild-type (E2wt) scaffold protein without an HIV-1 N-terminal fusion (domain or fragment)” the stoichiometry N was 60.
